# In PMC9375587:
# Tests used:
# [1] = biological target: Myeloperoxidase (MPO), native, dimeric (human) (UniProt P05164); assay: SPR
# [2] = biological target: 2 CP-dimeric MPO complex (CP-MPO-MPO-CP) (human (endogenous in donor blood plasma) | human) (UniProt P00450); assay: solid-phase enzyme assay
Kd [1],koff [1],kon [1],Kd [2],Substance
327 nM,0.422 s⁻¹,12900 M⁻¹ s⁻¹,,Ceruloplasmin proteolyzed by thrombin (FIIa) (from UniProt P00450 501-906) (natural protein)
,,,46 nM,Alpha-thrombin (FIIa) (enzyme)
